ΔΔG bind against BPTIWT data for one substance are collected here from publication doi:10.1101/2020.10.14.338756.

For assay [1], the target named is BPTI_A16S, displayed on yeast (bovine).
Assay [2] deals with BPTI_K15A, displayed on yeast (bovine).
Assay [3] deals with BPTI_K15R, displayed on yeast (bovine).

As for Bovine trypsin (enzyme), the figures for the ΔΔG bind against BPTIWT in assay [1], in assay [2] and in assay [3] were 4.5 kcal/mol, 11.1 kcal/mol and -1.4 kcal/mol, respectively.
